Experimental findings from patent US20240209114A1 (JIANGSU HENGRUI PHARMACEUTICALS, published 2024) are described below.

Numbering of substitutions follows the chain as printed. Names and notes keep the numbering of the source. Read-outs that look alike come from different tables or passages of the source.

Assay [1] addresses T1, MASP2 in human serum (human, UniProt O00187 16-686). Kind of assay: cell-based or functional assay.
The target of assay [2] is MASP2 in mouse serum (mouse, UniProt Q91WP0 20-685). Kind of assay: cell-based or functional assay.
Assay [3] addresses MASP2 in monkey serum (monkey). Kind of assay: cell-based or functional assay.
For assay [4], the target named is T2, Murine MASP2A (S632A) protein (murine, UniProt Q91WP0 16-685). Kind of assay: SPR (Biacore 8K), antibody captured on anti-human Fc chip, antigen as analyte, 1:1 fit. As for the experimental part: (§1) The binding properties of the anti-MASP2 antibodies were determined by the method of Biacore. […] An anti-human Fc IgG capture chip was used to capture the antibodies, then antigens with different concentrations were used as a mobile phase for the determination, and finally curve fitting was performed according to a 1:1 mode to obtain affinity values.
A general note: SPR reads the build-up and loss of mass on a sensor chip optically.

Assay [5] concerns the target T1, MASP2 in human serum. Nature of the assay: cell-based or functional assay. This is another data set of the same source.
Assay [6] deals with T2, Murine MASP2A (S632A) protein. Kind of assay: SPR (Biacore 8K), antibody captured on anti-human Fc chip, antigen as analyte. As for the experimental part: as §1
For assay [7], the target named is Monkey MASP2A (S633A) protein (monkey, UniProt O00187 16-686 (human entry)). Nature of the assay: SPR (Biacore 8K), antibody captured on anti-human Fc chip, antigen as analyte, 1:1 fit. As for the experimental part:
as §1

Assay [8] concerns the target T1, MASP2 in human serum. Kind of assay: cell-based or functional assay. This is another data set of the same source.
Assay [9] has as its target T3, Human MASP2A (S633A) protein (human, UniProt O00187 16-686).
T3 construct: also called human enzymatic mutant human MASP2A (S633A)
Kind of assay: SPR (Biacore 8K), antibody captured on anti-human Fc chip, antigen as analyte, 1:1 fit. The method, then: as §1

The target in assay [10] is T1, MASP2 in human serum. Kind of assay: cell-based or functional assay. The source holds these as a separate data set.
The target of assay [11] is T1, MASP2 in human serum. Nature of the assay: cell-based or functional assay. This is another data set of the same source.

Monkey MASP2A (S633A) protein, sequence (O00187 other isoform, or with tags, fused parts or gaps S633A S633A): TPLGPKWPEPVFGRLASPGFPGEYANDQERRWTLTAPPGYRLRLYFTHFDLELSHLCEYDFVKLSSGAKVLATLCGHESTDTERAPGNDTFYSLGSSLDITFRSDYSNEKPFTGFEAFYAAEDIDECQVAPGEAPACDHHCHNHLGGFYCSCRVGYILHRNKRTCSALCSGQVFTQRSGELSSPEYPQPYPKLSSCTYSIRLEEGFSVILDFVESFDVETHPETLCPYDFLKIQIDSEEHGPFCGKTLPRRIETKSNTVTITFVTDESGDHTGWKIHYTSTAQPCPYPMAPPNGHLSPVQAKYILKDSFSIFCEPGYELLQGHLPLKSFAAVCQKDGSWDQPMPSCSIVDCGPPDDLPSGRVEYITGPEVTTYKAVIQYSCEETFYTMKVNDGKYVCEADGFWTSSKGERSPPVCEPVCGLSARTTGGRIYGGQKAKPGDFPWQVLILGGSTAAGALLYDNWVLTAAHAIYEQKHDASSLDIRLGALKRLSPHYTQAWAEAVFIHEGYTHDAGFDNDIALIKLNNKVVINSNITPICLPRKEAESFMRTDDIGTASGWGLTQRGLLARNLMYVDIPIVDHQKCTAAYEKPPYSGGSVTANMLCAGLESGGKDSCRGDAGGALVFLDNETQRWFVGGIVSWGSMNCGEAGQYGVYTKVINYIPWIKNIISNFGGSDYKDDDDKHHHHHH
T3 sequence (O00187 other isoform, or with tags, fused parts or gaps S633A S633A): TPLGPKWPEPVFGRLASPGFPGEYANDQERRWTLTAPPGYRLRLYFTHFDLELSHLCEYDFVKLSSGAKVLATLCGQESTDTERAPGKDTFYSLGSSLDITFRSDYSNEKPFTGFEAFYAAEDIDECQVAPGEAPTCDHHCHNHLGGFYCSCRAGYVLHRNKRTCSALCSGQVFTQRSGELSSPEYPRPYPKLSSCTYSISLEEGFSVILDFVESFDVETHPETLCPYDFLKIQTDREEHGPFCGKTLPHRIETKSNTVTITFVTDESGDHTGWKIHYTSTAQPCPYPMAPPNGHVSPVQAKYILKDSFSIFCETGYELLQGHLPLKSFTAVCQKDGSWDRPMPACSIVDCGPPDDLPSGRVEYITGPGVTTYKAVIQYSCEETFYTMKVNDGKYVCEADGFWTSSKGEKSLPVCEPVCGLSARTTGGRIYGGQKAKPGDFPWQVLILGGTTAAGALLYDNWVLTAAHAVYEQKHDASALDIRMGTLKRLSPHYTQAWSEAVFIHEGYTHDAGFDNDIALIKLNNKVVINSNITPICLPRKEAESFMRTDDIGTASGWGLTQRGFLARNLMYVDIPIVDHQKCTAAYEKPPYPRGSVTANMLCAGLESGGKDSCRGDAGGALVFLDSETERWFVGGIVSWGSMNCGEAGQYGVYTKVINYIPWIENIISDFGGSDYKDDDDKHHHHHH
T1 sequence (O00187 16-686 limits assumed): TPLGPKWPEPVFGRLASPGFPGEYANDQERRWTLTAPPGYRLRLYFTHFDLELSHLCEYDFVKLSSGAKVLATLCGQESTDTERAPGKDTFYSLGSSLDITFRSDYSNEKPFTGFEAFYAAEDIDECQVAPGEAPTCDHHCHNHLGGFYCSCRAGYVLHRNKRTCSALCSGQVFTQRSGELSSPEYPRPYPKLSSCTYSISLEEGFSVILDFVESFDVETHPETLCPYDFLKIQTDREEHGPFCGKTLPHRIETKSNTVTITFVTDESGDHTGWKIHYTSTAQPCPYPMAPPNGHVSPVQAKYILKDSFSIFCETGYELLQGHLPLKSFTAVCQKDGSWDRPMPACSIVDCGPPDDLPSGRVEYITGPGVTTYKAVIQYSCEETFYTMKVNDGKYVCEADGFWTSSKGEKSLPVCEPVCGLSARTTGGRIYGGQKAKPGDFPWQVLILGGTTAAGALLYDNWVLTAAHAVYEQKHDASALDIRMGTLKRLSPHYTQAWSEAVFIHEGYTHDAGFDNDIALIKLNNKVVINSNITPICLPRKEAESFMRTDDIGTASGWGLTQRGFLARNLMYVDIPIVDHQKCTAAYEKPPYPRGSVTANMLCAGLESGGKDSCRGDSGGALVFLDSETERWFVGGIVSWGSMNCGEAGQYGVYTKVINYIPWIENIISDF
T2 sequence (Q91WP0 other isoform, or with tags, fused parts or gaps S632A S632A): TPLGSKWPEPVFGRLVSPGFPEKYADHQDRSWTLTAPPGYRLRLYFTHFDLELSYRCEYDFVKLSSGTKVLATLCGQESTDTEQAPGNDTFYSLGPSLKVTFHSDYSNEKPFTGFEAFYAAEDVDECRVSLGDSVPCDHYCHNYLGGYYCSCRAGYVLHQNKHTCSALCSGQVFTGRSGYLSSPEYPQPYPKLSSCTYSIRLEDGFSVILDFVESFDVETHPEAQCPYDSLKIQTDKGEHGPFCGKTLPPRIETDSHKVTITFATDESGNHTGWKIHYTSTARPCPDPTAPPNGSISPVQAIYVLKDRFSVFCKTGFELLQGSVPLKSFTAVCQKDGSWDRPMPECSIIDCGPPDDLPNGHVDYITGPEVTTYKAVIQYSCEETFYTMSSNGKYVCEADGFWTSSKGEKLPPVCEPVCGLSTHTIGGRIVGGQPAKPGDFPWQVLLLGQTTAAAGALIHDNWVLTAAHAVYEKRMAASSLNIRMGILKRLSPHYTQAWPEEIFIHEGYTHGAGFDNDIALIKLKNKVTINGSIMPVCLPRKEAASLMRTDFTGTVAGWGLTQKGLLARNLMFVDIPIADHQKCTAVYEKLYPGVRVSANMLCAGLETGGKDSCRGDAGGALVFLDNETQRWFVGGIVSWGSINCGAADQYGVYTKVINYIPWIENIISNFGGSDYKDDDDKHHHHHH
MASP2 in mouse serum, sequence (Q91WP0 20-685 limits assumed): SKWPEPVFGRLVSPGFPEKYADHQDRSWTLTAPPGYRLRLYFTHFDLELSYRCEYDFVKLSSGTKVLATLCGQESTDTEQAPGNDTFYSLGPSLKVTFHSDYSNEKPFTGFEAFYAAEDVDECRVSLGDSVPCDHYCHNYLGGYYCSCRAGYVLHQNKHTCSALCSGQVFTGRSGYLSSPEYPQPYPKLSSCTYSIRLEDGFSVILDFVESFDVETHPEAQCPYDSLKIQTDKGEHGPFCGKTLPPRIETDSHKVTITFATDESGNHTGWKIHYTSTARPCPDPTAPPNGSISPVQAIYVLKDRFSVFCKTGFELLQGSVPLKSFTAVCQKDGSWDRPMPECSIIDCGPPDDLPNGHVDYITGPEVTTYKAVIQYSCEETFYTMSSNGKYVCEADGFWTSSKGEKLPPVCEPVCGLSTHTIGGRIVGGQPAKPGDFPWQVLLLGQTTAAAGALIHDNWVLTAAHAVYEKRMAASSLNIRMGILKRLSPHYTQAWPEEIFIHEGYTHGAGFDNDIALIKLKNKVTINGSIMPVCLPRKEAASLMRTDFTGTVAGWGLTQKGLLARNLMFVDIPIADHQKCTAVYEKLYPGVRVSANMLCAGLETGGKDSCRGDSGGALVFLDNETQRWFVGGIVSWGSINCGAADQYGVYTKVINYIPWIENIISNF

B1: 77H11 (antibody, V domains shown)
VH: DVQLQESGPGLVKPSQSLSLTCTVTGYSITSDYAWNWIRQFPGNKLEWMGYISYSGRTSYNPSLKSRISITRDTSKNQFFLQLNSVTTEDTATYYCAVLYALDYWGQGTSVTVSS
VL: DIVMTQSQKFMSTSVGDRVSVTCKASQNVDTNVAWYQQKPGQSPKALIYSASYRYSGVPDRFTGSGSGTDFTLTISDVQSEDLAEYFCQQYNSNPLTFGSGTKLEIK
B1: the “IC50 (µg/mL), inhibition of the lectin pathway in 1% human serum (C4c deposition on mannan)” value in [1] was 0.63 µg/mL.

B2: 67E8 (antibody, V domains shown)
VH: B1 VH with V98I, L102M
VL: B1 VL with D77N
Regarding B2, in assay [1], the “IC50 (µg/mL), inhibition of the lectin pathway in 1% human serum (C4c deposition on mannan)” value came out at 0.738 µg/mL.

B3: 67D2 (antibody, V domains shown)
VH: B1 VH with V98I, L102M, D103N, Y104F
VL: B1 VL with Y55F, D77N
Consider B3, for which the “IC50 (µg/mL), inhibition of the lectin pathway in 1% human serum (C4c deposition on mannan)” value in assay [1] came to 0.559 µg/mL.

B4: OMS721 (antibody, human IgG4 S228P, lambda, V domains shown)
VH: QVTLKESGPVLVKPTETLTLTCTVSGFSLSRGKMGVSWIRQPPGKALEWLAHIFSSDEKSYRTSLKSRLTISKDTSKNQVVLTMTNMDPVDTATYYCARIRRGGIDYWGQGTLVTVSS
VL: QPVLTQPPSLSVSPGQTASITCSGEKLGDKYAYWYQQKPGQSPVLVMYQDKQRPSGIPERFSGSNSGNTATLTISGTQAMDEADYYCQAWDSSTAVFGGGTKLTVLG
notes: Positive control, synthesized according to WO2012151481A; also called narsoplimab; positive control antibody
Broadly, the Kd is the free concentration of one partner at which half of the binding sites on the other are occupied at equilibrium, for simple one-to-one binding. As to B4, the “90% mouse serum IC50 (µg/mL), inhibition of the lectin pathway (C4c deposition on mannan)” value in assay [2] was determined as 3.74 µg/mL. Moreover, the “90% monkey serum IC50 (µg/mL), inhibition of the lectin pathway (C4c deposition on mannan)” value in assay [3] was 26.6 µg/mL. In addition, in assay [4], binding was characterised by a dissociation constant (Kd) of 0.233 nM.

B5: 77H11 (H3L1) (antibody, human IgG4 S228P, kappa, V domains shown)
VH: EVQLQESGPGLVKPSQTLSLTCTVSGYSITSDYAWNWIRQPPGKGLEWIGYISYSGRTSYNPSLKSRVTISRDTSKNQFSLKLSSVTAADTAVYYCAVLYALDYWGQGTTVTVSS
VL: DIQMTQSPSSLSASVGDRVTITCKASQNVDTNVAWYQQKPGKVPKALIYSASYRYSGVPSRFSGSGSGTDFTLTISSLQPEDVATYYCQQYNSNPLTFGQGTKLEIKR
notes: Humanized 77H11, full-length human IgG4 (S228P); also called 77H1(H3L1); 77H1 (H3L1)
For orientation: koff means a measure of how fast the partners let go of each other. A word on the kon: it is the rate constant with which the complex forms. Take B5: the “90% human serum IC50 (µg/mL), inhibition of the lectin pathway (C4c deposition on mannan)” value (“90% human serum IC50 (µg/mL), inhibition” below) in assay [5] was determined as 0.97 µg/mL. The “90% monkey serum IC50 (µg/mL), inhibition of the lectin pathway (C4c deposition on mannan)” value in assay [3] turned out to be 21.6 µg/mL. For the same molecule, the binding result in [6] is listed as “no binding”. Also, in [7], the equilibrium dissociation constant (Kd) turned out to be 0.14 nM, the koff came out at 8.63e-05 s⁻¹ and the on-rate (kon) was found to be 616000 M⁻¹ s⁻¹. For the same molecule, the “IC50 (µg/mL), inhibition of the lectin pathway in 90% human serum (C4c deposition on mannan)” value in [8] worked out at 0.624 µg/mL.

B6: 77H11 (H3L2) (antibody, V domains shown)
VH: B5 VH
VL: DIQMTQSPSSLSASVGDRVTITCKASQNVDTNVAWYQQKPGKSPKALIYSASYRYSGVPSRFSGSGSGTDFTLTISSLQPEDVAEYYCQQYNSNPLTFGQGTKLEIK
As to B6, in assay [8], the “IC50 (µg/mL), inhibition of the lectin pathway in 90% human serum (C4c deposition on mannan)” value was found to be 0.454 µg/mL.

B7: 77H11 (H4L2) (antibody, V domains shown)
VH: B5 VH with K44N, G45K, I49M, V68I
VL: B6 VL
Take B7: the “IC50 (µg/mL), inhibition of the lectin pathway in 90% human serum (C4c deposition on mannan)” value in assay [8] is 0.443 µg/mL.

B8: 77H11 (H4L1) (antibody, V domains shown)
VH: B5 VH with K44N, G45K, I49M, V68I
VL: B6 VL with S43V, E85T
Regarding B8, the “IC50 (µg/mL), inhibition of the lectin pathway in 90% human serum (C4c deposition on mannan)” value in [8] turned out to be 0.67 µg/mL.

B9: 77H11 (H2L2) (antibody, V domains shown)
VH: B5 VH with R72V
VL: B6 VL
As for B9, the “IC50 (µg/mL), inhibition of the lectin pathway in 90% human serum (C4c deposition on mannan)” value in [8] is 1.58 µg/mL.

B10: 29C1 (H1L1) (antibody, human IgG4 S228P, kappa, V domains shown)
VH: EVQLVESGGGLVKPGGSLRLSCAASGFTFSRFALSWVRQAPGKGLEWVSAVSRGGDYTYYPDSMKGRFTISRDNAKNSLYLQMNSLRAEDTAVYYCARHLYGYGHYYAMDYWGQGTTVTVSS
VL: DIQMTQSPSSLSASVGDRVTITCKASQDVNTAVAWYQQKPGKAPKLLIYSASYRYTGVPSRFSGSGSGTDFTFTISSLQPEDIATYYCQQHYSTPYTFGGGTKVEIKR
notes: Humanized 29C1, full-length human IgG4 (S228P); also called 29C1 (HIL1)
Take B10: the “90% human serum IC50 (µg/mL), inhibition” value in assay [5] came to 1.18 µg/mL. Also, in assay [3], the “90% monkey serum IC50 (µg/mL), inhibition of the lectin pathway (C4c deposition on mannan)” value worked out at 15.3 µg/mL. The binding result in assay [6] was “no binding”. For the same molecule, in [9], binding was put at a Kd of 0.0716 nM, the koff was found to be 2.94e-05 s⁻¹ and the kon was found to be 410000 M⁻¹ s⁻¹. In assay [7], this molecule registered a Kd of 0.193 nM, a dissociation rate constant (koff) of 6.83e-05 s⁻¹ and a kon of 354000 M⁻¹ s⁻¹. Besides, the “IC50 (µg/mL), inhibition of the lectin pathway in 90% human serum (C4c deposition on mannan)” value in [8] was 0.477 µg/mL.

B11: 29C1 (H1L2) (antibody, V domains shown)
VH: B10 VH
VL: DIVMTQSPSSLSASVGDRVTITCKASQDVNTAVAWYQQKPGKSPKLLIYSASYRYTGVPSRFSGSGSGTDFTFTISSLQPEDIATYYCQQHYSTPYTFGGGTKVEIK
Regarding B11, the “IC50 (µg/mL), inhibition of the lectin pathway in 90% human serum (C4c deposition on mannan)” value in [8] worked out at 0.534 µg/mL.

B12: 29C1 (H2L1) (antibody, V domains shown)
VH: B10 VH with S49A
VL: B11 VL with V3Q, S43A
B12: in [8], the “IC50 (µg/mL), inhibition of the lectin pathway in 90% human serum (C4c deposition on mannan)” value amounted to 0.471 µg/mL.

B13: 29C1 (H3L1) (antibody, V domains shown)
VH: B10 VH with S49A
VL: B11 VL with V3Q, S43A
Turning to B13, the “IC50 (µg/mL), inhibition of the lectin pathway in 90% human serum (C4c deposition on mannan)” value in assay [8] was 0.526 µg/mL.

B14: 29C1 (H2L2) (antibody, V domains shown)
VH: B10 VH with S49A
VL: B11 VL
Take B14: in assay [8], the “IC50 (µg/mL), inhibition of the lectin pathway in 90% human serum (C4c deposition on mannan)” value was found to be 0.555 µg/mL.

B15: 29C1 (H3L2) (antibody, V domains shown)
VH: B10 VH with S49A
VL: B11 VL
Take B15: the “IC50 (µg/mL), inhibition of the lectin pathway in 90% human serum (C4c deposition on mannan)” value in assay [8] was 0.515 µg/mL.

B16: 29C1 (antibody, V domains shown)
VH: EVQLVESGGGLVKPGGSLKLSCAASGFTFSRFALSWVRQTPEKRLEWVAAVSRGGDYTYYPDSMKGRFTISRDNAMNTLYLQMSSLSSEDTAMYYCARHLYGYGHYYAMDYWGQGTSVTVSS
VL: DIVMTQSHKFMSTSVGDRVSITCKASQDVNTAVAWYQQKPGQSPKLLIYSASYRYTGVPDRFTGSGSGTDFTFTISSVQAEDLAVYYCQQHYSTPYTFGGGTKLEIK
Take B16: in [10], the “IC50 (µg/mL), inhibition of the lectin pathway in 1% human serum (C4c deposition on mannan)” value was 0.086 µg/mL.

B17: 11165 (antibody, human IgG4 S228P, lambda, V domains shown)
VH: QVQLQESGPGLVKPSETLSLTCTVSGGSISSGEYFWGWIRQPPGKGLEWIGSIYYSGSTYYNPSLKSRVTISVDTSKNQFSLKLSSVTAADTAVYYCARSLKAARRDAFDIWGQGTTVTVSS
VL: QSVLTQPPSVSVSPGQTASITCSGHKLGDKYAYWYQQKPGQSPVLVIYQDTKRPSGIPERFSGFNSGNTATLTISGTQATDEADYYCQTWDSSTGVFGAGTKVTVLG
notes: Fully human antibody from phage display; Full-length human IgG4 (S228P), lambda light chain
With B17, in [5], the “90% human serum IC50 (µg/mL), inhibition” value stood at 0.93 µg/mL. Besides, the “90% mouse serum IC50 (µg/mL), inhibition of the lectin pathway (C4c deposition on mannan)” value in assay [2] amounted to 4.26 µg/mL. Also, the “90% monkey serum IC50 (µg/mL), inhibition of the lectin pathway (C4c deposition on mannan)” value in assay [3] turned out to be 21.1 µg/mL. Moreover, in assay [4], the equilibrium dissociation constant (Kd) came to 0.435 nM, the koff worked out at 0.00192 s⁻¹ and the kon turned out to be 4.41e+06 M⁻¹ s⁻¹. In [11], the “IC50 (µg/mL), inhibition of the lectin pathway in 1% human serum (C4c deposition on mannan)” value is 0.499 µg/mL.
